The supplement of paper PMC10126150
± gives the standard deviation of the averaged measurements.

Tested on: ATP
Assay: switch fluorescence ratio, 500 uM ATP over buffer (Cy3 cluster intensity, sum of 5 cycles each) (fold (ratio)); higher = stronger signal-on switching upon ATP binding; sequences stand for … in TCGTCGGCAGCGTCAGATGTGTATAAGAGACAGTTTTTTTTTTTTTTTTTTTTTTTTT…TC
Conditions: aptamer strand: ATP DNA aptamer (quencher-CACCTGGGGGAGTATTGCGGAGGAAGG + anchor), 100 nM annealed; ATP concentration: 500 uM
Method in brief: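 Clusters carrying Cy3-labelled switching strands on a modified Illumina MiSeq flow-cell were annealed to 100 nM quencher-labelled ATP aptamer and imaged in selection buffer. They were imaged again after 15 min with 500 uM ATP at 22 °C, over five buffer/ATP cycles with NaOH stripping and re-annealing in between. For each cluster, the fluorescence ratio is the summed Cy3 intensity of the target cycles divided by that of the buffer cycles, averaged per switch-domain sequence. Clusters outside 100-1000 RFU were left out.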
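Further: ATP exposure 15 min at 22 °C before imaging.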

Which switch fluorescence ratio does the source give for CAGTTGAACT here?
Its switch fluorescence ratio is 1.0209 ± 0.00023.

CAGGTATATG was tested. Which switch fluorescence ratio did it give?
Its switch fluorescence ratio is 1.01 ± 0.017.

For GATTTGTTTT, which switch fluorescence ratio is on record?
The switch fluorescence ratio was 0.994 ± 0.013.

For GATGTCCCGG, which switch fluorescence ratio is on record?
The switch fluorescence ratio was 0.987 ± 0.022.

Which switch fluorescence ratio does the source give for TAGGCAATCT here?
The switch fluorescence ratio was 1.25 ± 0.092.

Which switch fluorescence ratio does the source give for CAGTGTGCAG here?
The switch fluorescence ratio was 0.9602 ± 0.0028.

How did the switch fluorescence ratio turn out when GTTGTTAAGG was run?
The switch fluorescence ratio was 0.996 ± 0.014.

How did the switch fluorescence ratio turn out when GGGCCACGGA was run?
Its switch fluorescence ratio is 1.01 ± 0.048.

How did the switch fluorescence ratio turn out when GAGGTTATAG was run?
Its switch fluorescence ratio is 0.998 ± 0.02.

How did the switch fluorescence ratio turn out when CCCAGTTTTT was run?
Its switch fluorescence ratio is 1.006 ± 0.0054.

Which switch fluorescence ratio does the source give for GTTGTTTTCG here?
The switch fluorescence ratio was 0.987 ± 0.039.

How did the switch fluorescence ratio turn out when TTGTTAGTTA was run?
The switch fluorescence ratio was 1.01 ± 0.015.

With ACAGAATCGA as the sequence, how does the switch fluorescence ratio read?
The switch fluorescence ratio was 1.02 ± 0.032.

Which switch fluorescence ratio does the source give for ATTTGAAACT here?
Its switch fluorescence ratio is 1.02 ± 0.029.

With CGGTCAAGAG as the sequence, how does the switch fluorescence ratio read?
The switch fluorescence ratio was 1.11 ± 0.019.

With AGGGGGAGTA as the sequence, how does the switch fluorescence ratio read?
Its switch fluorescence ratio is 0.993 ± 0.027.

With TTGGGGTAAG as the sequence, how does the switch fluorescence ratio read?
Its switch fluorescence ratio is 0.971 ± 0.03.

GGAATACTAG was tested. Which switch fluorescence ratio did it give?
The switch fluorescence ratio was 1.14 ± 0.053.

With GAGGCTAGGG as the sequence, how does the switch fluorescence ratio read?
Its switch fluorescence ratio is 1.05 ± 0.031.

With CATTGCAGTG as the sequence, how does the switch fluorescence ratio read?
The switch fluorescence ratio was 1.03 ± 0.02.

With TAGGCCTAAT as the sequence, how does the switch fluorescence ratio read?
Its switch fluorescence ratio is 0.9715 ± 0.003.

GATAAGTCGG was tested. Which switch fluorescence ratio did it give?
Its switch fluorescence ratio is 1.009 ± 0.01.

How did the switch fluorescence ratio turn out when GATGGGTTCT was run?
The switch fluorescence ratio was 0.9926 ± 0.0044.

How did the switch fluorescence ratio turn out when ATAGAAAACT was run?
The switch fluorescence ratio was 1.4 ± 0.53.

Which switch fluorescence ratio does the source give for ACATCAGAAT here?
The switch fluorescence ratio was 1.01 ± 0.028.

AACCTCTCAT was tested. Which switch fluorescence ratio did it give?
The switch fluorescence ratio was 1.08 ± 0.011.

TTAACGGTCT was tested. Which switch fluorescence ratio did it give?
Its switch fluorescence ratio is 1.04 ± 0.027.

How did the switch fluorescence ratio turn out when GATGGGCTCG was run?
The switch fluorescence ratio was 0.988 ± 0.025.

For CGCCGGGGAT, which switch fluorescence ratio is on record?
The switch fluorescence ratio was 1.004 ± 0.002.

How did the switch fluorescence ratio turn out when AAATGCTTAG was run?
Its switch fluorescence ratio is 0.995 ± 0.011.

Which switch fluorescence ratio does the source give for CTATGGGGTG here?
The switch fluorescence ratio was 1.04 ± 0.04.

How did the switch fluorescence ratio turn out when TTCCGTTTTA was run?
Its switch fluorescence ratio is 1.15 ± 0.17.

For CATGAGTTGG, which switch fluorescence ratio is on record?
Its switch fluorescence ratio is 0.966 ± 0.041.

CATTGGGTTG was tested. Which switch fluorescence ratio did it give?
The switch fluorescence ratio was 0.9633 ± 0.0019.

With GGTAAAAGAT as the sequence, how does the switch fluorescence ratio read?
The switch fluorescence ratio was 0.977 ± 0.015.

For AGGTGCTCTT, which switch fluorescence ratio is on record?
Its switch fluorescence ratio is 1 ± 0.053.

For GATGGGGTGG, which switch fluorescence ratio is on record?
Its switch fluorescence ratio is 1 ± 0.016.

How did the switch fluorescence ratio turn out when TTGGTCTTTT was run?
Its switch fluorescence ratio is 0.976 ± 0.012.

With TGATACTGGG as the sequence, how does the switch fluorescence ratio read?
The switch fluorescence ratio was 1.06 ± 0.06.

Which switch fluorescence ratio does the source give for GGGGATGTGT here?
The switch fluorescence ratio was 1 ± 0.035.

With GATCGGATGT as the sequence, how does the switch fluorescence ratio read?
Its switch fluorescence ratio is 0.981 ± 0.011.

With TTTCCCGTAT as the sequence, how does the switch fluorescence ratio read?
Its switch fluorescence ratio is 1.07 ± 0.049.

Which switch fluorescence ratio does the source give for TCCCCTGGTT here?
The switch fluorescence ratio was 1.64 ± 0.14.

With GTTTTAATGG as the sequence, how does the switch fluorescence ratio read?
The switch fluorescence ratio was 1.01 ± 0.025.

How did the switch fluorescence ratio turn out when TGAGTTCGTA was run?
The switch fluorescence ratio was 1.02 ± 0.012.

CAGGAATAGC was tested. Which switch fluorescence ratio did it give?
The switch fluorescence ratio was 1.25 ± 0.044.

For CGTTGGGAGC, which switch fluorescence ratio is on record?
The switch fluorescence ratio was 1 ± 0.019.

Which switch fluorescence ratio does the source give for GAAATTGATG here?
The switch fluorescence ratio was 0.983 ± 0.017.

Which switch fluorescence ratio does the source give for TTTATGAGTT here?
The switch fluorescence ratio was 0.988 ± 0.029.

How did the switch fluorescence ratio turn out when GGGCACAGCA was run?
Its switch fluorescence ratio is 0.9752 ± 0.0056.

GCGGCGGCAG was tested. Which switch fluorescence ratio did it give?
The switch fluorescence ratio was 0.9761 ± 0.0088.

With ACTCTGGGC as the sequence, how does the switch fluorescence ratio read?
The switch fluorescence ratio was 1.17 ± 0.21.

Which switch fluorescence ratio does the source give for GTTCTGTTGG here?
Its switch fluorescence ratio is 0.995 ± 0.023.

For TAATCGCCTG, which switch fluorescence ratio is on record?
The switch fluorescence ratio was 0.981 ± 0.034.

CAGATAAGGA was tested. Which switch fluorescence ratio did it give?
The switch fluorescence ratio was 1.01 ± 0.026.

How did the switch fluorescence ratio turn out when TCGGAGCGGG was run?
Its switch fluorescence ratio is 1.102 ± 0.0032.

How did the switch fluorescence ratio turn out when AGGGGGTTCG was run?
Its switch fluorescence ratio is 1.02 ± 0.027.

For GGTGATGGGC, which switch fluorescence ratio is on record?
The switch fluorescence ratio was 1.01 ± 0.062.

How did the switch fluorescence ratio turn out when ACGGGGCGGC was run?
Its switch fluorescence ratio is 1.11 ± 0.028.

Which switch fluorescence ratio does the source give for GTTGTATGTT here?
Its switch fluorescence ratio is 1.02 ± 0.039.

Which switch fluorescence ratio does the source give for TGCTATATGG here?
Its switch fluorescence ratio is 0.994 ± 0.022.

How did the switch fluorescence ratio turn out when ATGTCCAGGG was run?
The switch fluorescence ratio was 1.21 ± 0.04.

How did the switch fluorescence ratio turn out when TCCGCACAGA was run?
Its switch fluorescence ratio is 3.41 ± 0.89.

With AAGCAACAGT as the sequence, how does the switch fluorescence ratio read?
The switch fluorescence ratio was 1.094 ± 0.0035.

Which switch fluorescence ratio does the source give for GGGCTTTGAG here?
Its switch fluorescence ratio is 0.979 ± 0.038.

How did the switch fluorescence ratio turn out when CTTTAGAATC was run?
Its switch fluorescence ratio is 0.941 ± 0.021.

Which switch fluorescence ratio does the source give for GGTTGTGAGT here?
The switch fluorescence ratio was 0.993 ± 0.02.

With CAGGGACGGT as the sequence, how does the switch fluorescence ratio read?
The switch fluorescence ratio was 0.975 ± 0.058.

For GTGGACACAC, which switch fluorescence ratio is on record?
The switch fluorescence ratio was 1.04 ± 0.035.

Which switch fluorescence ratio does the source give for GAAGGTTGAG here?
Its switch fluorescence ratio is 1.025 ± 0.009.

TTTTGGGCCA was tested. Which switch fluorescence ratio did it give?
The switch fluorescence ratio was 1.04 ± 0.018.

Which switch fluorescence ratio does the source give for CGTAGTGGAA here?
Its switch fluorescence ratio is 0.9919 ± 0.0061.

GGGTGCGGAC was tested. Which switch fluorescence ratio did it give?
Its switch fluorescence ratio is 1.01 ± 0.042.

Which switch fluorescence ratio does the source give for ACAATTTATT here?
The switch fluorescence ratio was 1.02 ± 0.051.

CAGAAGGGCC was tested. Which switch fluorescence ratio did it give?
Its switch fluorescence ratio is 0.997 ± 0.089.

How did the switch fluorescence ratio turn out when CGTGCGGTAT was run?
Its switch fluorescence ratio is 0.987 ± 0.039.

With TCCGATGGGG as the sequence, how does the switch fluorescence ratio read?
The switch fluorescence ratio was 1.084 ± 0.0093.

ACGGTCGGCT was tested. Which switch fluorescence ratio did it give?
Its switch fluorescence ratio is 1.04 ± 0.048.

With GGGGAGGCAT as the sequence, how does the switch fluorescence ratio read?
The switch fluorescence ratio was 0.954 ± 0.027.

With TGGCCGGCTG as the sequence, how does the switch fluorescence ratio read?
The switch fluorescence ratio was 1 ± 0.074.

For TAAGGGTAAT, which switch fluorescence ratio is on record?
The switch fluorescence ratio was 0.973 ± 0.046.

GGGTTCTTAA was tested. Which switch fluorescence ratio did it give?
Its switch fluorescence ratio is 0.981 ± 0.048.

For CATTCGGGGG, which switch fluorescence ratio is on record?
Its switch fluorescence ratio is 0.997 ± 0.016.

Which switch fluorescence ratio does the source give for GGGATTGTCT here?
The switch fluorescence ratio was 0.948 ± 0.033.

TTCTCAGTTT was tested. Which switch fluorescence ratio did it give?
Its switch fluorescence ratio is 1.15 ± 0.22.

Which switch fluorescence ratio does the source give for TGGGGGATAT here?
The switch fluorescence ratio was 1.05 ± 0.052.

With ATGTAATTTA as the sequence, how does the switch fluorescence ratio read?
The switch fluorescence ratio was 1 ± 0.017.

With CGAGGGAGTA as the sequence, how does the switch fluorescence ratio read?
The switch fluorescence ratio was 0.993 ± 0.035.

How did the switch fluorescence ratio turn out when GGAGTCGTTA was run?
Its switch fluorescence ratio is 1 ± 0.041.

With TTTCTGGTTT as the sequence, how does the switch fluorescence ratio read?
Its switch fluorescence ratio is 1 ± 0.016.

For GTTTTTTGAT, which switch fluorescence ratio is on record?
The switch fluorescence ratio was 1.008 ± 0.0042.

For TAGGGGGTCA, which switch fluorescence ratio is on record?
The switch fluorescence ratio was 1 ± 0.022.

TGGAAACCGG was tested. Which switch fluorescence ratio did it give?
Its switch fluorescence ratio is 1.009 ± 0.0055.

Which switch fluorescence ratio does the source give for GGGCCTTGGT here?
The switch fluorescence ratio was 0.987 ± 0.025.

For ACCTATTAGA, which switch fluorescence ratio is on record?
The switch fluorescence ratio was 1.01 ± 0.022.

With GAGAAAACCG as the sequence, how does the switch fluorescence ratio read?
The switch fluorescence ratio was 1.06 ± 0.092.

With ATTGGAAAAG as the sequence, how does the switch fluorescence ratio read?
Its switch fluorescence ratio is 0.985 ± 0.035.

How did the switch fluorescence ratio turn out when TGAATTTTGT was run?
The switch fluorescence ratio was 0.978 ± 0.036.

With GATTCCAGTT as the sequence, how does the switch fluorescence ratio read?
Its switch fluorescence ratio is 1.01 ± 0.032.

GCAATTGTCG was tested. Which switch fluorescence ratio did it give?
The switch fluorescence ratio was 1.02 ± 0.046.
